Patent US8012929B2, “Peptides directed for diagnosis and treatment of amyloid-associated diseases” (Tel Aviv University Future Technology Development L.P., priority 2002, dated 2011)
Entries after “also recorded” stand apart in the source; their conditions may differ. Square brackets hold non-standard residues; d marks the D form. Ends that are not written are not given here. Aib = CC(C)(N)C(=O)O

Assays:
MBP-IAPP1-37 = target: T1, MBP-IAPP1-37 (Homo sapiens, UniProt P10997); experiment: Binding of MBP-IAPP to membrane-spotted peptide arrays; details: membrane-bound hIAPP decamers, 10 μg/ml MBP-IAPP1-37, densitometry, semiquantitative
T1 construct: incubated in the presence of 10 μg/ml MBP-IAPP1-37 at 4° C. for 12 h; made in house; host or cells: E. coli BL21(DE3)
T1 sequence (P10997 34-70 limits assumed): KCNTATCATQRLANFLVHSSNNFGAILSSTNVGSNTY
Excerpt: IAPP peptide array construction—Decamers corresponding to consecutive overlapping sequences of hIAPP1-37 SEQ ID NOs. 61-88) were synthesizes on a cellulose membrane matrix using the SPOT technique (Jerini AG, Berlin, Germany). The peptides were covalently bound to a Whatman 50 cellulose support (Whatman, Maidstone, England) via the C-terminal amino-acids. N-terminal acetylation was used for peptide scanning because of higher stability to peptide degradation, and better representation of the native recognition motif.
Thereafter, cellulose membrane was incubated in the presence of 10 μg/ml MBP-IAPP1-37 at 4° C. for 12 h in the same blocking buffer. The cellulose membrane was then washed repeatedly with 0.05% Tween 20 in TBS. […] HRP-conjugated goat anti mouse antibodies (Jackson Laboratories, USA) were used as a secondary antibody. Immunoblots were developed using the Renaissance western blot Chemiluminescence Reagent (NEN, USA) according to Manufacturer's instructions and signal was quantified using densitometry. Regeneration of the cellulose membrane for reuse was carried out by sequential washing with Regeneration buffer I including 62.5 mM Tris, 2% SDS, 100 Mm 2-mercaptoethanol, pH 6.7, and Regeneration buffer II including 8 M urea, 1% SDS, 0.1% 2-mercaptoethanol. Efficiency of the washing steps was monitored by contacting the membrane with the chemiluminescence reagent, as described.
To determine the specific role of the phenylalanine residue in IAPP-self assembly, a membrane-based binding assay was preformed in order to systematically explore the molecular determinants that facilitate the ability of the full-length hIAPP to recognize the “basic amyloidogenic unit”. To this end, the ability of MBP-IAPP (see Example 6) to interact with an array of peptides in which the phenylalanine position was systematically altered (SEQ ID NOs. 91-110), was addressed.

hIAPP1-37 = target: T2, hIAPP1-37 (Homo sapiens, UniProt P10997); experiment: Thioflavin T fluorescence assay of hIAPP fibrillization (sodium acetate buffer); format: biochemical; details: 4 μM hIAPP1-37, 40 μM inhibitor, 10 mM sodium acetate pH 6.5
T2 construct: purchased CalBiochem (La Jolla Calif., USA)
T2 sequence (P10997 34-70 limits assumed): T1 sequence (P10997 34-70 limits assumed)
Description: Thioflavin T fluorescence assay—hIAPP fibrillization was monitored by Thioflavin T dye binding assay. hIAPP1-37 stock solution was diluted to a final concentration of 4 μM in 10 mM sodium acetate buffer (pH 6.5) with or without inhibitors (40 μM), and a final concentration of HFIP of 1% (vol). Immediately after dilution, sample was centrifuged for 20 minutes in 20,000×g at 4° C. and the supernatant fraction was used for fluorescence measurements. In every measurement ThT was added to a 1 ml sample at a final concentration of 3 μM and measurements were effected by using Perkin-Elmer (excitation 450 nm, 2.5 nm slit; emission 480 nm 10 nm slit). Background was subtracted from all samples.

[1] = Transmission electron microscopy of wild-type and Aib modified hIAPP peptides; format: physicochemical; details: 5 mM peptide, aged 4 days (wt) or 10 days (modified)
Description: Peptide solutions—freshly prepared stock solutions were prepared by dissolving the lyophilized form of the peptides in dimethyl sulfoxide (DMSO) at a concentration of 100 mM. To avoid any pre-aggregation, fresh stock solutions were prepared for each experiment. […] Transmission Electron Microscopy—a 10 μL sample of 5 mM peptide solution in 10 mM Tris buffer, pH 7.2 aged for 4 days (for wt peptides) and for 10 days (for modified peptides) was placed on 400-mesh copper grids (SPI supplies, West Chester Pa.) covered by carbon-stabilized Formvar film. After 1 minute, excess fluid was removed, and the grid was then negatively stained with 2% uranyl acetate in water for another 2 minutes. Samples were viewed in a JEOL 1200EX electron microscope operating at 80 kV.

[2] = Congo Red staining and birefringence of wild-type and Aib substituted IAPP peptides; format: physicochemical; details: 5 mM peptide aged for 10 days
Description: Congo Red Staining and Birefringence—A 10 μL suspension of 5 mM peptide solution in 10 mM Tris buffer, pH 7.2 aged for 10 days was allowed to dry overnight on a glass microscope slide. Staining was performed by the addition of a 10 μL suspension of saturated Congo Red (CR) and NaCl in 80% ethanol (v/v) solution. The solution was filtered via 0.2 μm filter. The slide was then dried for a few hours. Birefringence was determined with a SZX-12 Stereoscope (Olympus, Hamburg, Germany) equipped with cross polarizers. 100× magnification is shown.

[3] = FT-IR of Aib-modified IAPP peptide fragments; format: physicochemical; details: two week aged peptide solutions
Description: Fourier Transform Infrared Spectroscopy—Infrared spectra were recorded using a Nicolet Nexus 470 FT-IR spectrometer with a DTGS detector. Samples of two week aged peptide solutions, were suspended on a CaF2 plate and dried by vacuum. The peptide deposits were resuspended with D2O and subsequently dried to form thin films. The resuspension procedure was repeated twice to ensure maximal hydrogen to deuterium exchange. The measurements were taken using a 4 cm^−1 resolution and 2000 scans averaging. The transmittance minima values were determined by the OMNIC analysis program (Nicolet).

[4] = Kinetic aggregation assay, turbidity at 405 nm (Example 8); format: physicochemical; details: hIAPP 22-29 analogues incubated for 1 week
[5] = Kinetic aggregation assay (turbidity at 405 nm) of IAPP peptide fragment and alanine mutants; format: physicochemical; details: 2 mM peptide, 10 mM Tris pH 7.2, 2% DMSO, room temperature
Description: To study self-assembly of the IAPP peptide derived fragments, aggregation and insolubilization kinetics were monitored using turbidity measurements at 405 nm.
Kinetic aggregation assay—Fresh peptide stock solutions were prepared by dissolving lyophilized form of the peptides in DMSO, a disaggregating solvent, at a concentration of 100 mM. To avoid any pre-aggregation, fresh stock solutions were prepared prior to each and every experiment. Peptide stock solutions were diluted into assay buffer and plated in 96-well plates as follows: 2 μl of peptides stock solutions were added to 98 μl of 10 mM Tris pH 7.2, resulting in a 2 mM final concentration of the peptide in the presence of 2% DMSO. Turbidity data was measured at 405 nm. A buffer solution including 2% DMSO was used as a blank. Turbidity was measured at room temperature over several time points.

[6] = Aggregate mean particle size by dynamic light scattering; format: physicochemical; details: 100 μM peptide, 1% DMSO, 10 mM Tris pH 7.2
Description: Therefore, the average size of the aggregates, formed by the various peptides, was determined using dynamic light scattering (DLS) experiments.
Method—Freshly prepared peptide stock solutions at a concentration of 10 mM were diluted in 10 mM Tris buffer pH 7.2 and further filtrated through a 0.2 μm filter to a final concentration of 100 μM peptide and 1% DMSO. Particle size measurement was conducted with a laser-powered ALV-NIBS/HPPS non-invasive backscattering instrument. Autocorrelation data was fitted using the ALV-NIBS/HPPS software to derive average apparent hydrodynamic diameters.

[7] = Congo red binding assay with polarization microscopy (Example 4); format: physicochemical; details: peptide solutions incubated for four days
Description: Congo red (CR) staining combined with polarization microscopy was utilized to test amyloidogenicity of the peptides of the present invention. […] Invest. 31:232-8; Lansbury (1992) Biochemistry 31:6865-70]. […] Staining was effected by the addition of 1 mM CR in 10 mM Tris buffer pH 7.2 followed by a 1 minute incubation. To remove excess CR, slides were rinsed with double-distilled water and dried. Saturated CR solutions solubilized in 80% ethanol (v/v) were used for poorly aggregating peptides. In such cases, staining was effected without rinsing. Birefringence was determined using a WILD Makroskop m420 (×70) equipped with a polarizing stage.

[8] = Negative staining electron microscopy of fibril formation (Example 5); format: physicochemical; details: 2 mM peptide incubated overnight
Description: Method—Peptide solutions (2 mM peptide in 10 mM Tris buffer pH 7.2), were incubated overnight at room temperature. Fibrils formation was assessed using 10 μl sample placed on 200-mesh copper grids, covered with carbon-stabilized formvar film (SPI Supplies, West Chester Pa.). Following 20-30 seconds of incubation, excess fluid was removed and the grids were negatively stained with 2% uranyl acetate in water. Samples were viewed in a JEOL 1200EX electron microscope operating at 80 kV.

Question: Which “binding to MBP-hIAPP1-37” value (MBP-IAPP1-37) does the source give for “hIAPP1-10: membrane-spotted decamer of hIAPP residues 1-10 (KCNTATCATQ)” here?
Answer: no binding

Question: Which “inhibition of IAPP fibrillization (ThT fluorescence at plateau)” value (“inhibition of IAPP fibrillization” for short) (hIAPP1-37) does the source give for “Gln-Lys-Leu-Val-Phe-Phe [EG05, reference compound]” here?
Answer: effective inhibition of IAPP fibrillization

Question: For Aib-NF-Aib-VH ([Aib]NF[Aib]VH), which “structures by electron microscopy” value [1] is on record?
Answer: no fibrillar structures were evident

Question: And the “Congo Red birefringence” value [2]?
Answer: no birefringence

Question: What about the “secondary structure by FT-IR” value [3] of the same substance?
Answer: characteristic to a random coil conformation

Question: With NVGAILSS as the substance, how does the endpoint turbidity [4] read?
Answer: lower extent

Question: For NLGAILSS, which endpoint turbidity [4] is on record?
Answer: lower extent

Question: Which results are given for “L6A: leucine to alanine mutant of the hIAPP peptide fragment, SEQ ID NO: 6 (NFGAIASS)”?
Answer: kinetics of aggregation (turbidity at 405 nm) [5]: reduced the kinetics of aggregation but did not abolish it completely; apparent hydrodynamic diameter of the structures formed [6]: Smaller structures; Congo red binding and birefringence [7]: bound CR and exhibited rare but characteristic birefringence; fibril structures by electron microscopy [8]: lower in comparison to that of wild type; also recorded: More distinct structures and longer fibrils, albeit less frequent

Question: Which “structures by electron microscopy” value [1] does the source give for ANFLV here?
Answer: formed fibrillar structures

Question: What about the “Congo Red birefringence” value [2] of the same substance?
Answer: typical yellow-green birefringence

Question: What about the “secondary structure by FT-IR” value [3] of the same substance?
Answer: typical of β-sheet spectra

Question: Which results are given for “I5A: isoleucine to alanine mutant of the hIAPP peptide fragment, SEQ ID NO: 5 (NFGAALSS)”?
Answer: kinetics of aggregation (turbidity at 405 nm) [5]: reduced the kinetics of aggregation but did not abolish it completely; apparent hydrodynamic diameter of the structures formed [6]: Smaller structures; Congo red binding and birefringence [7]: bound CR and exhibited rare but characteristic birefringence; fibril structures by electron microscopy [8]: lower in comparison to that of wild type; also recorded: More distinct structures and longer fibrils, albeit less frequent

Question: With NIGAILSS as the substance, how does the endpoint turbidity [4] read?
Answer: some low degree of turbidity

Question: For “hIAPP3-12: membrane-spotted decamer of hIAPP residues 3-12 (NTATCATQRL)”, which “binding to MBP-hIAPP1-37” value (MBP-IAPP1-37) is on record?
Answer: no binding

Question: With NAGAILSS as the substance, how does the endpoint turbidity [4] read?
Answer: lower extent

Question: Which “kinetics of aggregation (turbidity at 405 nm)” value [5] does the source give for “N1A: alanine-scan mutant of the hIAPP peptide fragment, SEQ ID NO: 2 (AFGAILSS)” here?
Answer: higher kinetics of aggregation

Question: And the “apparent hydrodynamic diameter of the structures formed” value [6]?
Answer: Smaller structures

Question: And the “Congo red binding and birefringence” value [7]?
Answer: bound CR and exhibited the characteristic green/gold birefringence

Question: What about the “fibril structures by electron microscopy” value [8] of the same substance?
Answer: tangled net-like structures

Question: For “hIAPP2-11: membrane-spotted decamer of hIAPP residues 2-11 (CNTATCATQR)”, which “binding to MBP-hIAPP1-37” value (MBP-IAPP1-37) is on record?
Answer: third binding spot

Question: For D-Pro-Aib [EG28], which “inhibition of IAPP fibrillization” value (hIAPP1-37) is on record?
Answer: inhibition potential

Question: With Aib-NF-Aib-V ([Aib]NF[Aib]V) as the substance, how does the “structures by electron microscopy” value [1] read?
Answer: no fibrillar structures were evident

Question: And the “Congo Red birefringence” value [2]?
Answer: no birefringence

Question: What about the “secondary structure by FT-IR” value [3] of the same substance?
Answer: characteristic to a random coil conformation

Question: With D-Phe-D-Pro [EG29] as the substance, how does the “inhibition of IAPP fibrillization” value (hIAPP1-37) read?
Answer: inhibition potential

Question: For ANFLVH, which “structures by electron microscopy” value [1] is on record?
Answer: formed fibrillar structures

Question: What about the “Congo Red birefringence” value [2] of the same substance?
Answer: typical yellow-green birefringence

Question: And the “secondary structure by FT-IR” value [3]?
Answer: typical of β-sheet spectra
